Data on five substances can be found in PMC8278974.

Common to all, as to test: gel electrophoresis; eluent of Ni-charged magnetic beads (0.5 M NaCl, 20 mM HEPES, 500 mM imidazole, 0.5% Genapol X-80, pH 8.0) after heating the lysate at 90 °C for 10 min; 4–20% Mini-PROTEAN TGX Gel, 200 V for 27 min; self-assembly, octamer band
Assay [1] has as its target MspA-H (M2 MspA with histidine at site 91) (Mycobacterium smegmatis).
Assay [2] has as its target MspA-M (M2 MspA with methionine at site 91) (Mycobacterium smegmatis).
Assay [3] addresses MspA-D (M2 MspA with aspartic acid at site 91) (Mycobacterium smegmatis).
Assay [4] concerns the target M2 MspA (Mycobacterium smegmatis porin A mutant M2) (Mycobacterium smegmatis) (UniProt A0QR29).
For assay [5], the target named is MspA-C (M2 MspA with cysteine at site 91) (Mycobacterium smegmatis).

As a reminder, the stoichiometry N is a count of units in the complex or per binding partner. As for “MspA-H (M2 MspA with histidine at site 91) (natural protein)”, the stoichiometry N in assay [1] came to 8.

In the case of “MspA-M (M2 MspA with methionine at site 91) (natural protein)”, the stoichiometry N in assay [2] came out at 8.

In turn, “MspA-D (M2 MspA with aspartic acid at site 91) (natural protein)” had a stoichiometry N in assay [3] of 8.

In turn, “M2 MspA (Mycobacterium smegmatis porin A mutant M2) (from UniProt A0QR29 28-211) (natural protein)” showed a stoichiometry N in assay [4] of 8.

With “MspA-C (M2 MspA with cysteine at site 91) (natural protein)”, in assay [5], the stoichiometry N is 8.
